Assay results reported in US20230357735, “PROGRAMMABLE NUCLEASES AND METHODS OF USE” (Mammoth Biosciences, Inc., published 2023).

T1: CasΦ.12 (in cells) (Unknown)
T1 chain: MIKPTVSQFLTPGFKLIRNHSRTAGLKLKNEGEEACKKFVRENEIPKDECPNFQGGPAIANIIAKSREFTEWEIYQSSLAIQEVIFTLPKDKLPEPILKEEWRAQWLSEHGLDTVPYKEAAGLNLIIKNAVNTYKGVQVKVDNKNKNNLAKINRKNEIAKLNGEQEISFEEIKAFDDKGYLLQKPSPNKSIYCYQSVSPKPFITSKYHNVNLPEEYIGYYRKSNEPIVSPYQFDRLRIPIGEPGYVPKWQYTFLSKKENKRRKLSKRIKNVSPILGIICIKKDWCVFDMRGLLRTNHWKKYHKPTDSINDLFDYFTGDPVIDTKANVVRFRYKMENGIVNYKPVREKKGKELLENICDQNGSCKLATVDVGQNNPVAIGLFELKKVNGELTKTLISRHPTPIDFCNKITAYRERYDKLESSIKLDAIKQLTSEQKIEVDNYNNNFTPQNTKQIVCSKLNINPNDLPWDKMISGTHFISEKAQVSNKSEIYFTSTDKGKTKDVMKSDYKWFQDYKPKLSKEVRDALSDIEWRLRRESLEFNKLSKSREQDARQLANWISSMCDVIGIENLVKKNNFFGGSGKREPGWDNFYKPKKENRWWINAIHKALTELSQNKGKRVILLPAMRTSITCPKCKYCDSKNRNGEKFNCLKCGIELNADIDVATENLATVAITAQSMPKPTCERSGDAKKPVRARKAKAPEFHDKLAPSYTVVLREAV

B1: TRAC gRNA R3042 ; TRAC target (ssRNA ; dsDNA)
RNA: CUUUCAAGACUAAUAGAUUGCUCCUUACGAGGAGACGAGUCUCUCAGCUGGUACAC
DNA 1: GAGTCTCTCAGCTGGTACAC
DNA 2: GTGTACCAGCTGAGAGACTC
B2: PDCD1 gRNA R2925 ; PDCD1 target (ssRNA ; dsDNA)
RNA: CUUUCAAGACUAAUAGAUUGCUCCUUACGAGGAGACUAGCACCGCCCAGACGACUG
DNA 1: TAGCACCGCCCAGACGACTG
DNA 2: CAGTCGTCTGGGCGGTGCTA
B3: B2M gRNA R3132 ; B2M target (ssRNA ; dsDNA)
RNA: CUUUCAAGACUAAUAGAUUGCUCCUUACGAGGAGACAGCAAGGACUGGUCUUUCUA
DNA 1: AGCAAGGACTGGTCTTTCTA
DNA 2: TAGAAAGACCAGTCCTTGCT

Target: T1, CasΦ.12 (in cells)
Experiment: cell_activity; T cells, RNP nucleofection; PAM NTTN
Procedure: This example illustrates the ability of CasΦ RNP complexes to knockout multiple genes simultaneously. In this study, gRNAs targeting B2M, TRAC and PDCD1 (provided in Table 15) were incubated with CasΦ.12 (SEQ ID NO: 12) for 10 minutes at room temperature to form B2M, TRAC, and PDC1 targeting RNPs, respectively. The B2M targeting RNPs, TRAC targeting RNPs, PDCD1 targeting RNPs and combinations thereof were added to T cells. T cells were resuspended at 5×10⁵ cells/20 μL in Nucleofection P3 solution and an Amaxa 4D 96-well electroporation system with pulse code EH115 was used to nucleofect the cells. Immediately after nucleofection, 85 μl pre-warmed culture medium was added to each well. The cells were then left in the cuvette plate for 10 minutes before transfer to the culture plate. On Day 3, genomic DNA was extracted and sent for NGS sequencing and the % indel was measured with a positive % indel being indicative of % knockout. On Day 5, cells were harvested for flow cytometry and the % knockout was measured with fluorescently labeled antibodies to TRAC and B2M (antibody to PDCD1 unavailable). % indel results are presented in Table 16 and flow cytometry data presented in Table 17.
Binder B1 has an activity of 77.6 % indel.
For B2, the activity was 44.6 % indel.
In the case of B3, the activity is reported as 85.5 % indel.
